The text below walks through data of US20040191271A1 (Pfizer, published 2004).

The series concerns the molecule itself. In words: size exclusion chromatography (Superdex 200), self-association of identical subunits. On the technique in general: Size exclusion chromatography separates by hydrodynamic size, large species first.

B1: Streptococcus pneumoniae undecaprenyl pyrophosphate synthase (enzyme)
chain: AVEVEVPTQVPAHIGIIMDGNGRWAKKRMQPRVFGHKAGMEALQTVTKAANKLGVKVITVYAFSTENWTRPDQEVKFIMNLPVEFYDNYVPELHANNVKIQMIGETDRLPKQTFEALTKAEELTKNNTGLILNFALNYGGRAEITQALKLISQDVLDAKINPGDITEELIGNYLFTQHLPKDLRDPDLIIRTSGELRLSNFLPWQGAYSELYFTDTLWPDFDEAALQEAILAYNRRHRRFGGV
notes: Homodimer of two identical subunits; Thrombin removed the tag before size exclusion and crystallization; also called UPS; UppS
As for B1, the binding result is listed as “binds”.
